According to patent US20230181701A1:

Biological target: CD20 on Daudi cells (UniProt P11836)
Test: cell-based or functional assay

Chain of UniProt P11836 (P11836 whole entry): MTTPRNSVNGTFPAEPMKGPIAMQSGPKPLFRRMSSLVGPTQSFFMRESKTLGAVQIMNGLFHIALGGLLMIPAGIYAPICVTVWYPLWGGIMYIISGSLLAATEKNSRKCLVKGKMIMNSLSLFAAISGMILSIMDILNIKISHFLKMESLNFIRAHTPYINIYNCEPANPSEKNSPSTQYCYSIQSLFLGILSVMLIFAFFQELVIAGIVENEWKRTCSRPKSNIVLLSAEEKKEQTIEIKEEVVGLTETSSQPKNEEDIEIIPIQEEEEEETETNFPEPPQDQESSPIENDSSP

Question: For “Anti-CD20 IgG (Rituximab, N7022, 10 mg/mL, Mabthera) (antibody)”, which CDC of Daudi cells with baby rabbit serum (CCK8) (% of cells dead) is on record?
Answer: 70
